Laboratory results as given in PMC6366860.

Assays:
[1] = target: murine α-cardiac myosin (filaments) (mouse) (UniProt Q02566); assay: co-sedimentation
[2] = target: F-actin from rabbit skeletal muscle (rabbit) (UniProt P68135); assay: co-sedimentation

| Substance | cosedimentation relative to human C0-C2 [1] | Kd [2] | stoichiometry N (mol C0-C2/mol actin) [2] |
| --- | --- | --- | --- |
| mouse short form C0-C2, N-terminal tagged (mSF2), lacking the 8 amino acid NTE (domain or fragment) | 162% | – | – |
| wild-type mouse cMyBP-C C0-C2 (with the N-terminal extension, NTE) (domain or fragment) | 60% | 7.9 µM | 1 |
